According to patent publication US20260216242A1, “ALPP-SPECIFIC VARIANT ANTIGEN BINDING MOLECULES” (ALMAC DISCOVERY LIMITED, priority 2022, published 2026):
Changes are numbered by the printed parent chain.

T1: ALPL expressed on the surface of CHO cells (CHO-ALPL) (Homo sapiens, UniProt P05186)
T1 construct: expressed in transfected cells
T1 sequence (P05186 18-501 limits assumed): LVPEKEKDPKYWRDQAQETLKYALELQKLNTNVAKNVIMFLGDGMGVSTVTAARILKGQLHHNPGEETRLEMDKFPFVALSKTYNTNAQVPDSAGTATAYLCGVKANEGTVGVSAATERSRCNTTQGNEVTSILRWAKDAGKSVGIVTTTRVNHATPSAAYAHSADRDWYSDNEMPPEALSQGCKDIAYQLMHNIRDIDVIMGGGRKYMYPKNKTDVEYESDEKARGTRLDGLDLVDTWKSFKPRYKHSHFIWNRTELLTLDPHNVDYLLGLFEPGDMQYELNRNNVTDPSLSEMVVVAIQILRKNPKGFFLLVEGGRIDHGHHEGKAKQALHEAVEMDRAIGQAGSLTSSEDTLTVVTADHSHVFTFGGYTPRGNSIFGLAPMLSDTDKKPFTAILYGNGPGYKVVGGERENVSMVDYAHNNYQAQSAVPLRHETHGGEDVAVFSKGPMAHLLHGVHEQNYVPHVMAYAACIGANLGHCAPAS

B1: D04: ALPP/ALPPL2 targeting VHH domain, SEQ ID NO: 26 (protein)
VHH: QVQLVESGGGLVQPGGSLRLSCAASESTFSINVMGWYRQAPGKQRELVATITSGDITNYADSVKGRFTISRDNAENTVYLRTNSLKPEDTAVYYCNARGEYHSGNEYDYWGQGTQVTVSS
B2: F08: ALPP/ALPPL2 targeting VHH domain, SEQ ID NO: 35 (protein)
VHH: QVQLVESGGGSVQAGGSLRLSCAASGPSLSNYAMGWFRQAPGKEREFVAGISWGGGRTSYTDSVKGRFTISRDNAKNTVYLQMNNLKPEDTGVYYCAGRYGRGRNVEYEYDYWGQGTQVTVSS
B3: E06: ALPP/ALPPL2 targeting VHH domain, SEQ ID NO: 30 (protein)
VHH: QVHLVESGGGLVQAGGSLRLSCAASRRSFSEYAMGWFRQAPGKEREFVAAIGWSGVIEYADSVKGRFTISRDNAKDTVYLQMNSLKPEDTAVYYCAAGLGIRVVSQTPAYWGQGTQVTVSS
B4: B01: ALPP/ALPPL2 targeting VHH domain, SEQ ID NO: 20 (protein)
VHH: QVQLVESGGGLVQAGGSLRLSCEVTRSPMPIDTMAWYRQAPGRQRELVAIISRSGSTNYADSVKGRFTISRNDTKSTMYKSTMYLKMNTLELEDTGVYYCNAVGLWNGAEYWGQGTQVTVSS
B5: D10: ALPP targeting VHH domain, SEQ ID NO: 28 (protein)
VHH: QVQLVESGGGLVQPGGSLRLSCAASGSIFSVNTMGWYRQAPGKQRDLVAVATSGGTIHYADSVKGRFTISRDNAKNTVYLQMNSLKPEDTAVYYCNLVVPYGMIAGDHDYWGQGTKVTVSS
B6: A05: ALPP/ALPPL2 targeting VHH domain, SEQ ID NO: 16; tested C-terminally His-tagged (protein)
VHH: QVQLVESGGGLVQAGASLTLSCAASGFTFNTRSIVWFRQAPGKEREAVSCISKVAGSTYYGDSVQGRFSSSTDNAKNTVSLQMNSLKPEDTAVYTCAASFAPNCYGWSVAANMEYWGEGTMVTVSS
modifications: C-terminal His tag
notes: tested C-terminally His-tagged
B7: C07: ALPP/ALPPL2 targeting VHH domain, SEQ ID NO: 25 (protein)
VHH: QVQLVESGGGLVQAGESLRLACAASGTIFSGNAVGWYRQAPEKQREWVSSITDYGDTDYAEAVKGRFTISRDNAKNTVYLQMNSLKPEDTAVYYCYVYQRGESEEYWGQGTQVTVSS
B8: A06: ALPP/ALPPL2 targeting VHH domain, SEQ ID NO: 17; tested C-terminally His-tagged (protein)
VHH: QVHLVESGGGLVQAGGSLRLSCAASGRTFLSMGWFRQAPGKEREFVAAISWTGGSTGYADSVKGRFTISRESDKETMYLQMNSLKPEDTAVYYCAARGDVYYGGDDATRYKYWGQGTQVTVSS
modifications: C-terminal His tag
notes: as for B6
B9: E10: ALPP/ALPPL2 targeting VHH domain, SEQ ID NO: 31 (protein)
VHH: QVQLVESGGGLVQAGGSLRLSCAVSGRALSDYNIGWFRQAPGKEREFVARKTWDGSSTRYDDSVKGRFTVSIEDAKNTAYLQMSSLKTEDTAVYYCAAGRYSRARGWEYDYWGQGTQVTVSS
B10: F05: ALPP/ALPPL2 targeting VHH domain, SEQ ID NO: 34 (protein)
VHH: B9 VHH with V24A, L29F, S30G, K51R, E73D, D74N, S84N, A104V

Molecular target: T1, ALPL expressed on the surface of CHO cells (CHO-ALPL)
Assay: Cell-surface binding by flow cytometry, CHO-ALPL
Conditions: VHH His proteins
Experimental: C-terminal His tagged VHH proteins were assessed for ALPP, ALPPL2, ALPI and ALPL cell-surface binding by flow cytometry. Binders encompassing different epitope bins were screened on CHO cells stably expressing ALPP, ALPPL2, ALPI or ALPL. High levels of cell-surface proteins expression were confirmed for each of the cell-lines by flow cytometry.
Cell surface binding of test agents to hALPP isoforms was characterized in four CHO-ALPP isoform stably transfected cell lines (CHO-ALPP, CHO-ALPPL2, CHO-ALPI and CHO-ALPL) and the resulting KDapp values determined. Adherent cells were detached from tissue culture flasks by incubating with 0.1% EDTA/PBS solution at 37° C. for ~10 minutes or until cells detached easily. Cells were re-suspended in ice-cold PBS/2% FCS in 15 ml tubes and centrifuged at 1700 rpm for 5 mins at 4° C. Supernatant was removed and the cell pellet re-suspended in PBS/2% FCS. A cell count was performed using a Chemometec Nucleocounter NC-202 and 2.5×10^5 cells were aliquoted per test sample into a 96 well plate. Cells were incubated with 100 μl of test agents at a range of concentrations, plus controls for 1 hr on ice. The sample plate was centrifuged at 1700 rpm for 5 mins at 4° C. The supernatant was removed, and a wash performed by re-suspending the cell pellets in 0.25 mL of ice-cold PBS/2% FCS using a multichannel pipette. Samples were again centrifuged at 1700 rpm for 5 min at 4° C. Supernatant was removed and two further washes performed as described. After the final wash and centrifugation step, excess liquid was removed by blotting the plate on tissue paper. Binding of VHH (His6 tagged) agents was determined by adding 100 μl of anti-x6His tag Ab (Abcam) per cell pellet sample as appropriate and incubating on ice for 30 mins. Wash steps were performed as described previously. Fitc-anti-mouse antibody (ThermoFisher) was used to detect binding of the VHH (His6 tagged) agents by incubating with the appropriate samples for 30 min on ice in the dark. Wash steps were performed as described previously. All cell pellets were finally re-suspended in […] of ice-cold PBS/2% FCS and left on ice in the dark prior to analysis on a Merck-Millipore Guava EasyCyte HT or Thermo Fisher Attune N×T flow cytometer.
VHH-hFc proteins were assessed for human ALPP, ALPPL2, ALPI and ALPL cell-surface binding by flow cytometry. Binders were screened on CHO cells stably expressing human ALPP, ALPPL2, ALPI or ALPL.
Cell surface binding of test agents to hALPP isoforms was characterized in four CHO-ALPP isoform transfectant cell lines (CHO-ALPP, CHO-ALPPL2, CHO-ALPI and CHO-ALPL) and the resulting KDapp values determined. Adherent cells were detached from tissue culture flasks by incubating with 0.1% EDTA/PBS solution at 37° C. for ~10 minutes or until cells detached easily. Cells were re-suspended in ice-cold PBS/2% FCS in 15 ml tubes and centrifuged at 1700 rpm for 5 mins at 4° C. Supernatant was removed and the cell pellet re-suspended in PBS/2% FCS. A cell count was performed using a Chemometec Nucleocounter NC-202 and 2.5×10^5 cells were aliquoted per test sample into a 96 well plate. Cells were incubated with 100 μl of test agents at a range of concentrations, plus controls for 1 hr on ice. The sample plate was centrifuged at 1700 rpm for 5 mins at 4° C. The supernatant was removed, and a wash performed by re-suspending the cell pellets in 0.25 mL of ice-cold PBS/2% FCS using a multichannel pipette. Samples were again centrifuged at 1700 rpm for 5 min at 4° C. Supernatant was removed and two further washes performed as described. After the final wash and centrifugation step, excess liquid was removed by blotting the plate on tissue paper. Binding of VHH-hFc agents was determined by adding 100 μl of Fitc-anti-human Ab (ThermoFisher) and incubating for 30 mins on ice in the dark. Wash steps were performed as described previously. […]

Molecule	KDapp CHO-ALPL
B1	No binding
B2	No binding
B3	No binding
B4	No binding
B5	No binding
B6	No binding
B7	No binding
B8	No binding
B9	No binding
B10	No binding
